This passage reports Stimulation Index, FXa generation assay, estimated, Kd and Maximum stimulation (fold), FXa generation assay with bispecific antibody; maximum results from patent publication US20260193376A1.

Assay [1] concerns the target human plasma-derived Factor IXa (human) (UniProt P00740). The experiment in a line: cell-based or functional assay.
The target is the same in assay [2]. The experiment in a line: FXa generation assay at eight OA antibody concentrations, fit to the quadratic binding equation.
Assay [3] deals with human coagulation Factor X (human) (UniProt P00742). The assay can be described thus: ITC, 37 °C, pH 7.4, antibody injected into FX. In general terms: Isothermal titration calorimetry measures the heat released or taken up as one component is titrated into another.
human coagulation Factor X (human), sequence (P00742 41-179, chain 1 of 2): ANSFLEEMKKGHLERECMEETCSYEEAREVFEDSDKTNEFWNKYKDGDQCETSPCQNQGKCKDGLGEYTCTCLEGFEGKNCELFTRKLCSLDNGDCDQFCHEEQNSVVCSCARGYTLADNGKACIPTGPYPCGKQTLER
human coagulation Factor X (human), sequence (P00742 183-488, chain 2 of 2): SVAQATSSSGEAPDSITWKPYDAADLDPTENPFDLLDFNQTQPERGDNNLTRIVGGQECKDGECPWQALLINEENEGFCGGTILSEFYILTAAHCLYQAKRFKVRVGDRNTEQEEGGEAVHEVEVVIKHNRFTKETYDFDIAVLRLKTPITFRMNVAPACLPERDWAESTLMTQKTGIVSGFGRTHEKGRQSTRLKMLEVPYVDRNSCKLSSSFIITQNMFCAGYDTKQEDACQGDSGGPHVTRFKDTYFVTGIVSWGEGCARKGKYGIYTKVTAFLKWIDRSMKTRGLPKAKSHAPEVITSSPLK
Assay [4] has as its target human coagulation Factor IX (human) (UniProt P00740). The experiment in a line: ITC, 37 °C, pH 7.4, antibody injected into FIX.
Assay [5] deals with human plasma-derived Factor IXa (human) (UniProt P00740). The experiment in a line: ITC, 37 °C, pH 7.4, antibody injected into FIXa.
human plasma-derived Factor IXa (human), sequence (P00740 47-191, chain 1 of 2): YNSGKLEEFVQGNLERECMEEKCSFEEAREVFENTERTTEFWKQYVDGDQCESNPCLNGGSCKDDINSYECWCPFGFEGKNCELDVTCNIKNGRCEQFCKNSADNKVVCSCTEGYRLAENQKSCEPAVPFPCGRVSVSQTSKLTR
human plasma-derived Factor IXa (human), sequence (P00740 227-461, chain 2 of 2): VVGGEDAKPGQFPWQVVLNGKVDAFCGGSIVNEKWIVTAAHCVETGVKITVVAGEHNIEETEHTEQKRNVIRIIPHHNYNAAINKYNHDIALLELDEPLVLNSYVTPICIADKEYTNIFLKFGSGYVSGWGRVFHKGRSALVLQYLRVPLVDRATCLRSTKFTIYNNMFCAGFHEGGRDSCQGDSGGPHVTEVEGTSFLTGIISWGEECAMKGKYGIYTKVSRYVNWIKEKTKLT

human coagulation Factor IX (human), sequence (P00740 47-461 T194A limits assumed): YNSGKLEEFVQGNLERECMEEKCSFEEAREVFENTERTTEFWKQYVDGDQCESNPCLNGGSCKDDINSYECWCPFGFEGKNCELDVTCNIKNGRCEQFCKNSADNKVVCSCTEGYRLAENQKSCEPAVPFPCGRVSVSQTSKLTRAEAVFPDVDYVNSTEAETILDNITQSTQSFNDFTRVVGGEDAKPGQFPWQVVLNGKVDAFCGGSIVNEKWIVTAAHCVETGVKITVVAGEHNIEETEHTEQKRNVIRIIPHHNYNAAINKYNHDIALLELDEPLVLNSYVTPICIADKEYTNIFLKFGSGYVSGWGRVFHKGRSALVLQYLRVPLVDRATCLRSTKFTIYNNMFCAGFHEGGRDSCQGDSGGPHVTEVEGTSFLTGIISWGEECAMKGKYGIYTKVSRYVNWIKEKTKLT

On to “one-armed (OA) ACE910 anti-FIXa antibody”, for which the Stimulation Index, FXa generation assay, estimated at full FIXa saturation in assay [1] was 1370 fold. Besides, in assay [2], the Kd – broadly, the constant that tells how readily two partners part at equilibrium – was found to be 1.1 µM.
ACE910 (bispecific antibody) showed a Maximum stimulation (fold), FXa generation assay with bispecific antibody; maximum at 10480 nM in assay [1] of 891 fold. In addition, the dissociation constant (Kd) in assay [3] amounted to 2.42 µM; in assay [4], 2.77 µM; in assay [5], 1.97 µM.
